The supplement of paper PMC10567573

B1: SPATS1 (parent)
chain: YPEQSKGFHKAGSMLPPVNFSIVP

Variants of: B1
Assay: protein stability index of a GFP-peptide fusion (GPS, HEK-293T) (PSI 1-6); higher = more stable
Settings: c terminus: a fixed tail appended
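Further: lentivirally expressed fusions sorted by FACS into six bins by GFP to DsRed ratio, PSI derived from sequencing read proportions per bin multiplied by bin number.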

Protein stability index of substitutions, site by site:
Q4: R 1.79; T 1.8; N 1.89; Y 2.56; E 3.03; I 1.85; K 1.77; L 1.81; V 2.43; P 2.16; A 3.18; D 2.71; W 3.72; F 3.4; C 1.8; H 2.29; M 1.39; S 1.99; G 1.89
G7: C 1.94; K 2.39; S 1.9; F 2.12; N 2.09; H 1.43; R 2.92; M 2.2; I 2.34; Q 1.73; P 1.71; A 2.45; T 3.08; D 2.86; L 2.24; V 1.86; W 1.7; E 1.63; Y 2.14
S13: F 1.97; A 1.68; Y 1.78; R 2.15; V 1.67; D 2.17; N 2.13; W 2.1; G 1.85; E 2.24; L 1.88; C 1.73; M 1.69; I 1.74; K 1.95; Q 1.97; P 1.88; H 1.9; T 1.7
S5: F 2.3; H 2.1; L 2.15; Q 2.55; W 2.18; Y 2.1; M 2.37; I 2.2; V 2.45; A 2.17; R 2.67; E 2.69; P 2.15; T 2.23; K 2.49; N 1.99; D 2.74; G 2.52; C 1.96
E3: A 1.78; V 1.76; K 1.8; S 2; R 1.64; T 2.02; P 2.09; I 2.12; M 2.14; H 1.81; D 2.24; Q 2.5; L 1.9; G 1.82; C 2.35; N 2.39; Y 2.03; W 2.01; F 2.11
K10: C 3.44; P 2; Y 2.15; W 3.61; Q 1.9; M 1.93; E 2.58; V 1.76; L 2.88; D 2.54; A 1.85; G 1.52; F 1.57; H 1.44; I 1.7; T 2.08; R 2.47; S 1.91; N 2
G12: H 1.94; I 1.49; P 2; A 1.76; N 1.94; T 2.04; Q 1.66; M 1.7; S 1.84; W 2.08; E 1.95; C 2.75; D 2.08; Y 2.64; K 1.98; L 2.24; R 2.26; F 1.64; V 1.79
P16: G 1.65; R 1.99; H 1.44; T 1.9; M 1.52; D 1.94; Q 2.02; N 1.65; C 1.97; L 1.76; A 1.95; V 2.16; I 1.54; F 1.98; S 1.43; Y 1.78; W 1.96; E 1.95; K 2.01
H9: F 4.31; L 1.66; A 2.1; N 2.75; C 1.82; M 2.14; S 2.4; R 2.42; I 2.38; Y 2.21; G 2.13; V 2.13; T 2.16; E 2.81; D 2.94; W 3.39; Q 2.51; K 2.56; P 2.19
A11: Q 2.17; D 2.29; F 2.1; P 2.19; Y 1.74; L 1.55; M 1.84; W 1.82; I 2.7; G 1.98; K 2.15; R 2.33; N 1.81; C 2.03; H 2.21; E 2.78; V 1.67; T 1.83; S 1.78
L15: I 1.84; A 1.63; K 1.72; V 1.85; Q 2.47; N 2.02; W 1.47; H 2.27; E 2.37; M 1.8; Y 2.42; R 1.9; C 2.05; T 2.16; F 1.84; G 1.58; D 2.29; P 2.42; S 2.04
V18: Q 2.2; G 2.48; C 2.2; L 1.28; I 1.84; K 2.06; S 1.96; P 2.19; Y 1.91; W 1.76; D 2.26; T 2; M 2.02; R 1.62; N 2.4; H 1.95; E 1.81; F 1.73; A 2.56
P2: Y 1.91; W 1.45; T 1.77; R 2.57; S 2.43; V 2.62
M14: Y 2; S 2.17; C 2.25; H 1.87; D 1.96; A 2.13; K 2.47; N 2.37; R 2.8; T 1.99; V 2.03; Q 2.08; F 2.28; P 2.07; W 1.91; E 1.88; I 1.83; G 1.97; L 1.74
F8: W 3.05; L 2.9; P 3.39; N 3.83; Q 3.39; T 3.18; S 3.57; R 3.17; Y 1.97; A 3.6; C 2.78; D 4.19; H 3.07; K 3.32; E 3.69; I 3.44; M 2.43; G 3.58; V 2.86
F20: E 2.13; C 2.13; D 2.39; A 2.26; G 1.71
P17: S 1.94; M 1.42; L 1.62; T 1.59; V 2.22; N 1.9; A 2.63; I 1.75; R 1.61; G 1.83; W 2.59; F 1.58; Y 1.8; D 1.94; C 1.41; Q 1.76; H 2.75; K 1.59; E 1.85
K6: V 1.67; Q 1.71; T 1.92; H 1.71; C 2.38; W 1.9; M 2.26; Y 1.93; I 1.86; R 1.71; A 1.92; L 1.75; S 2.56; G 2.09; P 2.17; F 2.1; E 2.41; N 1.91; D 2.29
N19: H 1.91; A 2.17; G 1.74; Q 1.87; W 2.18; L 2.24; R 1.85; M 1.75; I 2.41; Y 2.26; K 1.82; C 1.56; S 2.43; P 1.88; T 1.75; F 2.48; V 2.07; D 1.97; E 1.91
